Measurements: patent US20100144530A1, “IDENTIFICATION OF A NEW CLASS OF EPSP SYNTHASES” (priority 2005, published 2010)

B1: grg9: EPSP synthase ORF from Agrobacterium tumefaciens strain C58, in plasmid pAX702 (SEQ ID NO:3/4) (protein)
chain: MIELTITPPGHPLSGKVEPPGSKSITNRALLLAGLAKGKSHLSGALKSDDTLYMAEALREMGVKVTEPDATTFVVEGTGVLQQPEKPLFLGNAGTATRFLTAAGALVDGAVIIDGDEHMRKRPILPLVQALRALGVEADAPTGCPPVTVRGKGMGFPKGSVTIDANLSSQYVSALLMAAACGDKPVDIILKGEEIGAKGYIDLTTSAMEAFGAKVERVSNAIWRVHPTGYTATDFHIEPDASAATYLWGAELLTGGAIDIGTPADKFTQPDAKAYEVMAQFPHLPAEIDGSQMQDAIPTIAVIAAFNETPVRFVGIANLRVKECDRIRAVSLGLNEIREGLAHEEGDDLIVHADPSLAGQTVDASIDTFADHRIAMSFALAALKIGGIAIQNPACVAKTYPGYWKALASLGVDYTEKESAAEPQH
B2: grg6: EPSP synthase ORF from Pseudomonas syringae pv. tomato strain DC3000, in plasmid pAX703 (SEQ ID NO:1/2) (protein)
chain: MRPQATLTVMPVERPLVGRVSPPGSKSITNRALLLAGLAKGTSRLTGALKSDDTRVMSEALRLMGVQVDEPDDSTFVVTSSGHWQAPQQALFLGNAGTATRFLTAALANFEGDFVVDGDEYMRKRPIGPLVDALQRMGVEISAPSGCPPVAIKGKGGLQAGRIEIDGNLSSQYVSALLMAGACGKGSLEVALTGSEIGARGYVDLTLAAMQAFGAEVQAIGDAAWKVSATGYHATDFHIEPDASAATYLWAAQALTEGNIDLGVASDAFTQPDALASQIIDSFPNMPAVIDGSQMQDAIPTLAVLAAFNRQPVRFVGIANLRVKECDRISALCDGLCAIAPGLAVEEGDDLIVHANPALAGTTVNALIDTHSDHRIAMCFALAGLKIKGIHIQDPDCVAKTYPGYWDALASLGVSVQR

System: ΔaroA E. coli cells
Assay: Complementation of ΔaroA E. coli cells (functional EPSP synthase)
Type: cell-based
Conditions: plasmid transformed into ΔaroA E. coli cells

Molecule	Complementation of the aroA deletion
B1	complement the deletion
B2	complement the deletion
